From the supplement of paper PMC9170038

Tested on: MS2 coat protein
Assay: apparent KD of MS2 coat protein; designed switch direction (-1 OFF switch, 1 ON switch): 1; higher = weaker reporter binding
In short: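 RNA switches sharing common flanks were transcribed by stalled E. coli RNA polymerase on Illumina chips. A doubling series of SNAP-549-labelled MS2 coat protein, from 0.7 or 1.5 nM to 3 µM, was applied in Tris-HCl pH 7.5 buffer with KCl, MgCl2, BSA, DTT, tRNA and Tween-20. Each step lasted 0.8–1.5 h at the bottom of the series and 10–20 min at the top. Normalised cluster fluorescence was curve-fitted, giving apparent KD as the per-design median over clusters.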

[1] = input ligand: microRNA oligo, concentration not stated
[2] = Eterna round: R95, input ligand: FMN 200 uM
[3] = Eterna round: R95, input ligand: microRNA oligo, concentration not stated
[4] = Eterna round: R95, input ligand: none

Sequence | apparent KD of MS2 coat protein (input ligand: FMN 200 uM) [nM] | apparent KD of MS2 coat protein [1] [nM] | apparent KD of MS2 coat protein (input ligand: none) [nM] | apparent KD of MS2 coat protein [2] [nM] | apparent KD of MS2 coat protein [3] [nM] | apparent KD of MS2 coat protein [4] [nM]
GCCAUCGAGUGAGGAUAUGGCACCGAAACGGUGCCAGAAGGCAUGUCAAAAGACAUGAGGAUCACCCAUGUAUUAUCGAUGGCA [Mat - Same State NG 1 - JL mod - D88] (Eterna round: R96, puzzle: Same State NG 1) | 28.5 | 208 | 237 | – | – | –
GCCGCGUUUCACGCCUACAUGAGGAUCACCCAUGUAUGUAGGCAGGAUAUCGUUUGCUUUGCAAACGAGAAGGGCUGUAGUGGC [salish99_SSNG3_R04_007] (Eterna round: R96, puzzle: Same State NG 3) | 41.7 | 92.3 | 116 | – | – | –
GCCGCGUUUCGCGCCUACAUGAGGAUCACCCAUGUUUGUAGGCAGGAUAUCGUCCGCUUUGCGGGCGAGAAGGGCUGUUGUGGC [salish99_SSNG3_R04_021] (Eterna round: R96, puzzle: Same State NG 3) | 47 | 43.5 | 54.8 | – | – | –
GCCGCGUUUCGCGCCUACAUGAGGAUCACCCAUGUUUGUAGGCAGGAUAUCGUUUGCUUUGCAACCGAGAAGGGCUGUUGUGGC [salish99_SSNG3_R04_013] (Eterna round: R96, puzzle: Same State NG 3) | 51.6 | 38.4 | 55.5 | – | – | –
GCCGCGUUUCGCGCCUACAUGAGGAUCACCCAUGUUUGUAGGCAGGAUAUCGUUUGCUUUGCAAUCGAGAAGGGCUGUUGUGGC [salish99_SSNG3_R04_014] (Eterna round: R96, puzzle: Same State NG 3) | 33 | 44.6 | 56.6 | – | – | –
GCCGCGUUUCGCGCCUACAUGAGGAUCACCCAUGUUUGUAGGCAGGAUAUCGUUUGCUUUGCAGGCGAGAAGGGCUGUUGUGGC [salish99_SSNG3_R04_016] (Eterna round: R96, puzzle: Same State NG 3) | 43 | 39.1 | 46.5 | – | – | –
GCCGGCUGGUGAGGAUAUGGCACCUUAUUGGUGCCAGAAGGCAUGUCAAUUGACAUGAGGAUCACCCAUGUAUUAUAGUUGGCG [salish99_SSNG1_r04_605] (Eterna round: R96, puzzle: Same State NG 1) | 414 | 69.3 | 56.1 | – | – | –
GCGAAAUGAUGAAACAUGAGGAUCACCCAUGUAACGAGAGAUGAGGAUAUCGGAAAGGGAGGAGACGAGAAGGCAUGGUCACGC [AK SSNG3-V2-25.1] (Eterna round: R96, puzzle: Same State NG 3) | 48.4 | 43 | 58.7 | – | – | –
GCGAGCGUACUUGCAACAUGAGGAUCACCCAUGUUAACUGGACAGGAUAUGGUACCGUUUCGGUACCAGAAGGGUUCCUCAAUG [JL SSNG3 3.62] (Eterna round: R96, puzzle: Same State NG 3) | 295 | 116 | 214 | – | – | –
GCGAGCGUACUUGCAACAUGAGGAUCACCCAUGUUAACUGGACAGGAUAUGGUACCGUUUCGGUACCAGAAGGGUUUAUCAUGU [JL SSNG3 3.66] (Eterna round: R96, puzzle: Same State NG 3) | 92.3 | 92.8 | 116 | – | – | –
GCGAGCGUACUUGCAACAUGAGGAUCACCCAUGUUAACUGGACAGGAUAUGGUACCGUUUCGGUACCAGAAGGGUUUUUCAUGG [JL SSNG3 3.64] (Eterna round: R96, puzzle: Same State NG 3) | 85.6 | 50.6 | 74.3 | – | – | –
GCGAGCGUACUUGCUACAUGAGGAUCACCCAUGUUCGUUGGACAGGAUAUGGUACCGUUUCGGUACCAGAAGGGUUCACAUGUG [JL SSNG3 3.78] (Eterna round: R96, puzzle: Same State NG 3) | 142 | 158 | 242 | – | – | –
GCGAGCGUACUUGCUACAUGAGGAUCACCCAUGUUCGUUGGACAGGAUAUGGUACCGUUUCGGUACCAGAAGGGUUCAUCAUGA [JL SSNG3 3.76] (Eterna round: R96, puzzle: Same State NG 3) | 75.7 | 147 | 241 | – | – | –
GCGAGCGUACUUGCUACAUGAGGAUCACCCAUGUUUAUUGGACAGGAUAUGGUACCGUUUCGGUACCAGAAGGGUCCACAUGUA [JL SSNG3 3.85] (Eterna round: R96, puzzle: Same State NG 3) | 124 | 198 | 549 | – | – | –
GCGAGCGUACUUGCUACAUGAGGAUCACCCAUGUUUCAUGGACAGGAUAUGGUACCGUUUCGGUACCAGAAGGGUUCACAUGUG [JL SSNG3 3.81] (Eterna round: R96, puzzle: Same State NG 3) | 88.7 | 68 | 92.1 | – | – | –
GCGAGCGUACUUGCUACAUGAGGAUCACCCAUGUUUUAUGGACAGGAUAUGGUACCGUUUCGGUACCAGAAGGGUUCACAUGUA [JL SSNG3 3.83] (Eterna round: R96, puzzle: Same State NG 3) | 116 | 150 | 426 | – | – | –
GCGAUCUACCGGAAGGUAGAUCGGCUUGUACAUGAGGAUCACCCAUGUCUGUACAAGCUUUUUGCUCGUCUUAUGGG [salish99-hsa-208a-66] (Eterna round: R96, puzzle: Sensor for hsa-mir-208a) | 1150 | 27.9 | 713 | – | – | –
GCGCAAUGAUGUGACAUGAGGAUCACCCAUGUAACCUCAUGUAAGGAUAUCGGGAAAAAAAAAACCGAGAAGGUAUGGUCACGC [AK SSNG3-V2-27.2] (Eterna round: R96, puzzle: Same State NG 3) | 145 | 61.4 | 138 | – | – | –
GCGCAGCUGGGUGAGGAUAUCGGUGGUAAAACAUGAGGAUCACCCAUGUCCGAAGCUCGGACUUCCGAGAAGGCGCCCGGCUGCA [Ridigea] (puzzle: Same State 2) | – | – | – | 13 | 72.3 | 115
GCGCAGCUGGGUGAGGAUAUCGGUGGUAAAACAUGAGGAUCACCCAUGUCCGGAGCUCGGACUUCCGAGAAGGCACCCGGCUGCA [Erisais] (puzzle: Same State 2) | – | – | – | – | 27.2 | –
GCGGAACCUGACAUGAGGAUCACCCAUGUUCCGGAAACGGCACAGGAUAUCUGUCCGAAAAGGUCAGAGAAGGGUGGAAACCGC [Fiskers NG3ss - 98] (Eterna round: R96, puzzle: Same State NG 3) | 68 | 179 | 193 | – | – | –
GCGGCGGCACGGCAGGAUAUGAUAAAACCUACAUGAGGAUCACCCAUGUCGGCGGGUUGCAAAAUUCAGAAGGGCCCUGUAGGCC [Leorzaonis] (puzzle: Same State 2) | – | – | – | 16.6 | 34.6 | 38.6
GCGGUACCUAACAUGAGGAUCACCCAUGUUCCGGAAACGGCACAGGAUAUCUGUCCGAAAAGGUCAGAGAAGGGUGAAAACCGC [Fiskers NG3ss - 94] (Eterna round: R96, puzzle: Same State NG 3) | 489 | 396 | 478 | – | – | –
GCUACCAUAGAAGCCAACAUGAGGAUCACCCAUGUAUGUUGGUAGGAUAUCGAUUGCAAAGCGAUCGAGAAGGGCUAAGGUAGC [Mat - Same State NG 3 - JL Mod - D83] (Eterna round: R96, puzzle: Same State NG 3) | 164 | 130 | 139 | – | – | –
GCUACCAUUGAAGCCAACAUGAGGAUCACCCAUGUAUGUUGGUAGGAUAUCGAUUGCAAAGCGAUCGAGAAGGGCUAAGGUAGC [Mat - Same State NG 3 - JL Mod - D81] (Eterna round: R96, puzzle: Same State NG 3) | 81.2 | 57.4 | 66.8 | – | – | –
GCUACCAUUGAAGCCUACAUGAGGAUCACCCAUGUAUGUAGGCAGGAUAUCGAUUGCAAAGCGAUCGAGAAGGGCUUAGGUAGC [Mat - Same State NG 3 - JL Mod - D90] (Eterna round: R96, puzzle: Same State NG 3) | 30.8 | 52.2 | 79.1 | – | – | –
GCUACCAUUGAAGCCUACAUGAGGAUCACCCAUGUAUGUAGGCAGGAUAUCGAUUGCUUUGCGAUCGAGAAGGGCUUAGGUAGC [JL SSNG3 1.30] (Eterna round: R96, puzzle: Same State NG 3) | 21.6 | 47.5 | 60.8 | – | – | –
GCUACGGACGUAGGAUAUGUAGGAUAUGGUGAGAGCUAAGCUUGGAAGUCACUUCAACCAGAAGGACAGAAGGACGCCGUGAGG [pwkr ssNG2 2FMN + F9.18] (Eterna round: R96, puzzle: Same State NG 2) | 241 | 13.4 | 52.2 | – | – | –
GCUAGAAAUAAAGCCAACAUGAGGAUCACCCAUGUAUGUUGGCAGGAUAUCGUAUGCAAAGCAUACGAGAAGGGCCAAACUAGC [Mat - Same State NG 3 - JL Mod - D3] (Eterna round: R96, puzzle: Same State NG 3) | 37.3 | 85 | 117 | – | – | –
